B1: Ly2846 (multi-specific antibody)
chain 1: QVQLVQSGAEVKKPGASVKVSCKASGYTFTSYVMHWVRQKPGQGLEWIGYINPYNEGTESTDKFKGRATMTSDKSTSTVYMELSSLRSEDTAVYYCASIYYGYEGTYFGVWGQGTLVTVSSASTKGPSVFPLAPSSKSTSGGTAALGCLVKDYFPEPVTVSWNSGALTSGVHTFPAVLQSSGLYSLSSVVTVPSSSLGTQTYICNVNHKPSNTKVDKKVEPKSCGGGGSGGGGSGGGGSGGGGSEVQLVESGGGLVQPGGSLRLSCAASGFTFSTYAMNWVRQAPGKGLEWVGRIRSKYNNYATYYADSVKGRFTISRDDSKNSLYLQMNSLKTEDTAVYYCVRHGNFGNSYVSWFAYWGQGTLVTVSSGGGGSDKTHTCPPCPAPELLGPSVFLFPPKPKDTLMISRTPEVTCVVVDVSHEDPEVKFNWYVDGVEVHNAKTKPREEQYNSTYRVVSVLTVLHQDWLNGKEYKCKVSNKALGAPIEKTISKAKGQPREPQVYTLPPSREEMTKNQVSLWCLVKGFYPSDIAVEWESNGQPENNYKTTPPVLDSDGSFFLYSKLTVDKSRWQQGNVFSCSVMHEALHNHYTQKSLSLSPGKGGGGSGGGGSGGGGSGGGGSQVQLVQSGAEVKKPGASVKVSCKASGYTFTDFWMSWVRQAPGQGLEWMGQIYPNTGTTHSNEKFKGRVTMTRDTSTSTVYMELSSLRSEDTAVYYCARSYHISTTPNWFAYWGQGTLVTVSS
chain 2: QVQLVQSGAEVKKPGASVKVSCKASGYTFTSYVMHWVRQKPGQGLEWIGYINPYNEGTESTDKFKGRATMTSDKSTSTVYMELSSLRSEDTAVYYCASIYYGYEGTYFGVWGQGTLVTVSSASTKGPSVFPLAPSSKSTSGGTAALGCLVKDYFPEPVTVSWNSGALTSGVHTFPAVLQSSGLYSLSSVVTVPSSSLGTQTYICNVNHKPSNTKVDKKVEPKSCGGGGSGGGGSGGGGSGGGGSQAVVTQEPSLTVSPGGTVTLTCRSSTGAVTTSNYANWVQQKPGQAPRGLIGGTNKRAPWTPARFSGSLLGGKAALTITGAQAEDEADYYCALWYSNLWVFGGGTKLTVLGGGGSDKTHTCPPCPAPELLGPSVFLFPPKPKDTLMISRTPEVTCVVVDVSHEDPEVKFNWYVDGVEVHNAKTKPREEQYNSTYRVVSVLTVLHQDWLNGKEYKCKVSNKALGAPIEKTISKAKGQPREPQVYTLPPSREEMTKNQVSLSCAVKGFYPSDIAVEWESNGQPENNYKTTPPVLDSDGSFFLVSKLTVDKSRWQQGNVFSCSVMHEALHNRFTQKSLSLSPGKGGGGSGGGGSGGGGSGGGGSDIQMTQSPSSLSASVGDRVTITCKASQNVYKKLEWYQQKPGKVPKVLIYHTNILQTGVPSRFSGSGSGTDYTLTISSLQPEDVATYYCYQWNSGPTFGGGTKVEIK
chain 3: EIVLTQSPATLSLSPGERATLSCRASSSVSYMHWYQQKPGQAPRPWIYATSNLASGIPARFSGSRSGTDYTLTISSLEPEDFAVYYCQQWSSNTLTFGGGTKVEIKRTVAAPSVFIFPPSDEQLKSGTASVVCLLNNFYPREAKVQWKVDNALQSGNSQESVTEQDSKDSTYSLSSTLTLSKADYEKHKVYACEVTHQGLSSPVTKSFNRGEC
notes: anti-B7H3/CD3/PD-L1
B2: Ly2904 (multi-specific antibody)
chain 1: QVQLVQSGAEVKKPGASVKVSCKASGYTFTSYVMHWVRQKPGQGLEWIGYINPYNEGTESTDKFKGRATMTSDKSTSTVYMELSSLRSEDTAVYYCASIYYGYEGTYFGVWGQGTLVTVSSASTKGPSVFPLAPSSKSTSGGTAALGCLVKDYFPEPVTVSWNSGALTSGVHTFPAVLQSSGLYSLSSVVTVPSSSLGTQTYICNVNHKPSNTKVDKKVEPKSCGGGGSGGGGSGGGGSGGGGSEVQLVESGGGLVQPGGSLRLSCAASGFTFSTYAMNWVRQAPGKGLEWVGRIRSKYNNYATYYADSVKGRFTISRDDSKNSLYLQMNSLKTEDTAVYYCVRHGNFGNSYVSWFAYWGQGTLVTVSSGGGGSDKTHTCPPCPAPELLGPSVFLFPPKPKDTLMISRTPEVTCVVVDVSHEDPEVKFNWYVDGVEVHNAKTKPREEQYNSTYRVVSVLTVLHQDWLNGKEYKCKVSNKALGAPIEKTISKAKGQPREPQVYTLPPSREEMTKNQVSLWCLVKGFYPSDIAVEWESNGQPENNYKTTPPVLDSDGSFFLYSKLTVDKSRWQQGNVFSCSVMHEALHNHYTQKSLSLSPGKGGGGSGGGGSGGGGSGGGGSQVTLKESGPALVKPTQTLTLTCTFSGFSLSTSGTCVSWIRQPPGKALEWLATICWEDSKGYNPSLKSRLTISKDTSKNQAVLTMTNMDPVDTATYYCARREDSGYFWFPYWGQGTLVTVSS
chain 2: QVQLVQSGAEVKKPGASVKVSCKASGYTFTSYVMHWVRQKPGQGLEWIGYINPYNEGTESTDKFKGRATMTSDKSTSTVYMELSSLRSEDTAVYYCASIYYGYEGTYFGVWGQGTLVTVSSASTKGPSVFPLAPSSKSTSGGTAALGCLVKDYFPEPVTVSWNSGALTSGVHTFPAVLQSSGLYSLSSVVTVPSSSLGTQTYICNVNHKPSNTKVDKKVEPKSCGGGGSGGGGSGGGGSGGGGSQAVVTQEPSLTVSPGGTVTLTCRSSTGAVTTSNYANWVQQKPGQAPRGLIGGTNKRAPWTPARFSGSLLGGKAALTITGAQAEDEADYYCALWYSNLWVFGGGTKLTVLGGGGSDKTHTCPPCPAPELLGPSVFLFPPKPKDTLMISRTPEVTCVVVDVSHEDPEVKFNWYVDGVEVHNAKTKPREEQYNSTYRVVSVLTVLHQDWLNGKEYKCKVSNKALGAPIEKTISKAKGQPREPQVYTLPPSREEMTKNQVSLSCAVKGFYPSDIAVEWESNGQPENNYKTTPPVLDSDGSFFLVSKLTVDKSRWQQGNVFSCSVMHEALHNRFTQKSLSLSPGKGGGGSGGGGSGGGGSGGGGSNIQMTQSPSSLSASVGDRVTITCKAGQNVNNYLAWYQQKPGKAPKVLIFNANSLQTGVPSRFSGSGSGTDFTLTISSLQPEDFATYYCQQYNSWPTFGGGTKVEIK
chain 3: B1 chain 3
notes: anti-B7H3/CD3/PD-1

Key:
[1] = biological target: T1, PD-L1 (human, UniProt Q9NZQ7 19-238, limits assumed); assay: FCM or ELISA, graded
T1 construct: On Raji cells expressing human PD-L1 in the reporter assay

[2] = biological target: T2, PD-1 (human, UniProt Q15116 25-167, limits assumed); assay: FCM or ELISA, graded
T2 construct: On Jurkat T cells expressing human PD-1 in the reporter assay
T2 sequence (Q15116 25-167 limits assumed): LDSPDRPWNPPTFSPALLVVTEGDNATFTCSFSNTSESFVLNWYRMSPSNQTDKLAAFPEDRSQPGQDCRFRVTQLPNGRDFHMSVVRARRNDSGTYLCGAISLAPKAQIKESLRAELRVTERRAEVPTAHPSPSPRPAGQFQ

T1 sequence (Q9NZQ7 19-238 limits assumed): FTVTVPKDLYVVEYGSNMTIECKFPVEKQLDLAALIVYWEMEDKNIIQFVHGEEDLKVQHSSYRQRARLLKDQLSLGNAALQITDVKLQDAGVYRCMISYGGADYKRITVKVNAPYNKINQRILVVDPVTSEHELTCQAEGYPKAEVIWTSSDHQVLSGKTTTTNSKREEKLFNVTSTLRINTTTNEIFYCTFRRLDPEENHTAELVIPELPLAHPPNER

Binder	binding result [1]	binding result [2]
B1	binds	
B2		binds

Reference: patent publication EP4803150A2 (Lyvgen Biopharma Holdings Limited, dated 2026)
